In article PMC8641065 (The New phytologist, 2021):

Biological target: T1, HY5-S36A-GFP (Arabidopsis thaliana, UniProt O24646 1-168, S36A)
T1 sequence (looked up): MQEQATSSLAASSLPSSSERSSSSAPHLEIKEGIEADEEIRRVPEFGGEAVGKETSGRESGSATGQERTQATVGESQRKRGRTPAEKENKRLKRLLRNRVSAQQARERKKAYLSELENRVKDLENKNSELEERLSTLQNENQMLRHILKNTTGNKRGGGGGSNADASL
Experiment: co-IP

B1: COP1 (constitutive photomorphogenic1), endogenous (natural protein, UniProt P43254 1-675, looked up)
chain: MEEISTDPVVPAVKPDPRTSSVGEGANRHENDDGGSGGSEIGAPDLDKDLLCPICMQIIKDAFLTACGHSFCYMCIITHLRNKSDCPCCSQHLTNNQLYPNFLLDKLLKKTSARHVSKTASPLDQFREALQRGCDVSIKEVDNLLTLLAERKRKMEQEEAERNMQILLDFLHCLRKQKVDELNEVQTDLQYIKEDINAVERHRIDLYRARDRYSVKLRMLGDDPSTRNAWPHEKNQIGFNSNSLSIRGGNFVGNYQNKKVEGKAQGSSHGLPKKDALSGSDSQSLNQSTVSMARKKRIHAQFNDLQECYLQKRRQLADQPNSKQENDKSVVRREGYSNGLADFQSVLTTFTRYSRLRVIAEIRHGDIFHSANIVSSIEFDRDDELFATAGVSRCIKVFDFSSVVNEPADMQCPIVEMSTRSKLSCLSWNKHEKNHIASSDYEGIVTVWDVTTRQSLMEYEEHEKRAWSVDFSRTEPSMLVSGSDDCKVKVWCTRQEASVINIDMKANICCVKYNPGSSNYIAVGSADHHIHYYDLRNISQPLHVFSGHKKAVSYVKFLSNNELASASTDSTLRLWDVKDNLPVRTFRGHTNEKNFVGLTVNSEYLACGSETNEVYVYHKEITRPVTSHRFGSPDMDDAEEEAGSYFISAVCWKSDSPTMLTANSQGTIKVLVLAA
fold of COP1 co-immunoprecipitated, against the HY5-S36D-GFP line: 4 fold
